How the values were obtained:
Tg-tagged human afamin = molecular target: T1, Tg-tagged human afamin (human, UniProt P43652 22-599); assay: co-IP; anti-Tg antibody P20.1-Sepharose, serum-free culture media of Expi293F cells co-transfected with Tg-hAFM and PA-tagged human Wnts; immunoblot with biotinylated NZ-1; settings: partners not purified
T1 construct: human afamin with a long (36 residues) N-terminal tag peptide; cDNA was a gift from Luc Bélanger; built by the same strategy as the tagged Wnts (tag, TEV site); also called Tg-hAFM; Tg-AFM; source: Expi293F cells, transiently co-transfected with PA-tagged Wnts, in serum-free culture medium; not shown: TARGET (Tg) tag, N-terminal, kept
T1 sequence (looked up): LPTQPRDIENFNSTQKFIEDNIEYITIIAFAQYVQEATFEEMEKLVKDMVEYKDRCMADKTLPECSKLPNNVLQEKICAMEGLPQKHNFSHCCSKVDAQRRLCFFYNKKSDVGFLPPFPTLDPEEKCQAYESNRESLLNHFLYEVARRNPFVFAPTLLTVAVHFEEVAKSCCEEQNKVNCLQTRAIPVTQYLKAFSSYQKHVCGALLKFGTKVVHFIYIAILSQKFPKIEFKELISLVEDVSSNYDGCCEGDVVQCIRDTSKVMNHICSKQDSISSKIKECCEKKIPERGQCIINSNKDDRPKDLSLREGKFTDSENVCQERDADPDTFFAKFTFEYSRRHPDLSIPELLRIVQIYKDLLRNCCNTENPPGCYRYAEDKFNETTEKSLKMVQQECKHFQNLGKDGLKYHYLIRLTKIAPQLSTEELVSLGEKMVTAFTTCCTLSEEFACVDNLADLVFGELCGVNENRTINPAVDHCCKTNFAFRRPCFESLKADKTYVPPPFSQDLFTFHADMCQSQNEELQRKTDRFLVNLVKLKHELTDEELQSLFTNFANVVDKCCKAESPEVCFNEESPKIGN

[1] = molecular target: T2, TARGET-tagged mouse Wnt3a (mouse, UniProt P27467 19-352); assay: SEC; immunoaffinity-purified Wnt preparation on Superdex 200 10/300GL in TBS, no detergent; fractions on nonreducing SDS-PAGE, Coomassie stain and immunoblots; settings: both partners purified
T2 construct: Construct design (N-terminal region from the initiation Met) is in Supplementary file 1; also called Tg-Wnt3a; tagged Wnt3a; source: purified on P20.1-Sepharose (peptide elution), SEC; not shown: TARGET (Tg) tag, N-terminal, kept
T2 sequence (P27467 19-352): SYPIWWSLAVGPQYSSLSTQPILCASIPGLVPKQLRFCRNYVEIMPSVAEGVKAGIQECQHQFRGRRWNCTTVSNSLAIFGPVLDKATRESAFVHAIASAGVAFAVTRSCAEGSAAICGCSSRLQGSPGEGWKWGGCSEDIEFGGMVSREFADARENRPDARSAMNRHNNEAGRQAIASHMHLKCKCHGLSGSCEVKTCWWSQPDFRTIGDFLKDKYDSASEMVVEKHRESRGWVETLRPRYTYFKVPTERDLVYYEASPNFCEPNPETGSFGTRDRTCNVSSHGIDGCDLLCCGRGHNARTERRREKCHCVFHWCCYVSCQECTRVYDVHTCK

Binder | binding result (Tg-tagged human afamin) | stoichiometry N [1]
PA-tagged human Wnt3 (natural protein, UniProt P56703 22-355, looked up) GYPIWWSLALGQQYTSLGSQPLLCGSIPGLVPKQLRFCRNYIEIMPSVAEGVKLGIQECQHQFRGRRWNCTTIDDSLAIFGPVLDKATRESAFVHAIASAGVAFAVTRSCAEGTSTICGCDSHHKGPPGEGWKWGGCSEDADFGVLVSREFADARENRPDARSAMNKHNNEAGRTTILDHMHLKCKCHGLSGSCEVKTCWWAQPDFRAIGDFLKDKYDSASEMVVEKHRESRGWVETLRAKYSLFKPPTERDLVYYENSPNFCEPNPETGSFGTRDRTCNVTSHGIDGCDLLCCGRGHNTRTEKRKEKCHCIFHWCCYVSCQECIRIYDVHTCK | binds | 
bovine afamin from the serum of the culture medium (natural protein, UniProt G3MYZ3 22-604, looked up, bovine afamin, serum-derived; Glycoprotein of about 70 kDa; also called AFM; α-albumin; source: endogenous, fetal calf serum in the culture medium) LPTQPQDVDDVRITQKFIDDNIGYITIIAFAQYIQEASFEEVEMLVKAMTEYRDKCLADRTLPECSKLANEVLLENICAMEGLPQKYNFSHCCHKVDFERRLCFFHNKKADIGLLPPLPTLDPEEKCQTYKNNRESFLNNYVYEVSRRNPFVFAPTLLTVAARFEEMTKTCCEEQEKANCFQTKAEPFIYYLKALSSYQKNACRALMKFGRQILQSINIAILSQKFPKIGFKQLTSLLEDVSSKYDGCCEGDVVQCIRGRSKVMSHICSKQDSISSKIKDCCEKKIPERGECIIYSNKDDRPNDLSLREAKFIESDNVCEKRDADQANFMAEFLYEYSRRHPELSTPELLRIAKVYKDLLKECCNMENPPECYRHAENRFNETTEKSLKIVQRECEHFQNLGKDDLKYHYLINLTKLAPQLSTEELTFLGKEMVMALTTCCTLSEEFACVDNLVDLVLGELCGINENRNINPAVDHCCKTNFAFRRSCFESLEADKTYVPPSTSQGLFTFHADLCQAHNEELQRKKDRFLVNLVKLKPELAGEELWSLLADFTNVVEKCCKAQEPEACFKEESPKLAAKSQAA |  | 1

From article PMC4775226, “Active and water-soluble form of lipidated Wnt protein is maintained by a serum glycoprotein afamin/α-albumin” (eLife, 2016)
